Laboratory results published in US20260274985A1 (MYTHIC THERAPEUTICS, published 2026).
Numbering of substitutions follows the chain as printed.

Assays:
[1] = biological target: T1, TROP2 on TROP2-positive NCI-H1975 cells (human, UniProt P09758 27-323); assay: cell-based or functional assay
T1 sequence: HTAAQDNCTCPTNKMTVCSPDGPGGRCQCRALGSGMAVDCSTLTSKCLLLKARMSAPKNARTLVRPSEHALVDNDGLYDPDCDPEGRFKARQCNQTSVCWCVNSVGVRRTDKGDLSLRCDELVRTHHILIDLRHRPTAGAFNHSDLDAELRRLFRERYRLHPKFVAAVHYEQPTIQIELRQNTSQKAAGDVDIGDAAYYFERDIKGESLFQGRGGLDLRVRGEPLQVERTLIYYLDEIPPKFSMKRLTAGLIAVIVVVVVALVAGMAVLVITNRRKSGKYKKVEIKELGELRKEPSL

[2] = biological target: T2, Human TROP2 Protein, His Tag (Acro Biosystems) (human, UniProt P09758 27-274); assay: BLI (Octet)
T2 construct: Bought protein; also called TACSTD2; not shown: His tag
T2 sequence: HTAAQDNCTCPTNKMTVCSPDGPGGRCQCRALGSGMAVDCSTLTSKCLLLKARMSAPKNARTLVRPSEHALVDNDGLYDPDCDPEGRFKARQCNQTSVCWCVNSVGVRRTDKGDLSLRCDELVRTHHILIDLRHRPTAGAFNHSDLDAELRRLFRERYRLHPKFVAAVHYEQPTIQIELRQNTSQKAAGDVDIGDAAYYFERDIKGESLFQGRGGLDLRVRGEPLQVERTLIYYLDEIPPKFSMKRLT

[3] = biological target: T3, Human TROP2 Protein, His Tag, Acro Biosystems (human, UniProt P09758 27-274); assay: Octet (BLI)
T3 construct: Bought protein; not shown: His tag
T3 sequence: T2 sequence

[4] = biological target: T1, TROP2 on TROP2-positive NCI-H1975 cells; assay: binding to NCI-H1975 cells at pH 6.4, maximal MFI
[5] = biological target: T4, Human TROP2 Protein, His Tag (Acro Biosystems) (human, UniProt P09758 27-274); assay: BLI (Octet)
T4 construct: not shown: His tag
T4 sequence (looked up): T2 sequence

[6] = biological target: T1, TROP2 on TROP2-positive NCI-H1975 cells; assay: cell-based or functional assay; remark: listed apart in the source
[7] = biological target: T5, Human TROP2 Protein, His Tag (human, UniProt P09758 27-274); assay: BLI (Octet) [1/2]
T5 construct: Bought protein; also called TACSTD2; not shown: His tag
T5 sequence (looked up): T2 sequence
Procedure, shortened: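 Antibody variants from day-4 expression supernatants, diluted in 1×PBST pH 7.4 by expression level, captured on anti-human Fc tips. Association with 50 nM human TROP2-His in PBST pH 7.4 for 120 sec; dissociation in PBST pH 7.4 or pH 5.4 for 300 sec. Curves examined for koff at each pH versus parent antibody.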

[8] = biological target: T1, TROP2 on TROP2-positive NCI-H1975 cells; assay: cell-based or functional assay; remark: listed apart in the source
[9] = biological target: T6, Human TROP2 Protein, His Tag (Acro Biosystems) (human, UniProt P09758 27-274); assay: BLI (Octet), IgG on anti-human Fc sensor, soluble TROP2; grade 2 = No change vs parent
T6 construct: Soluble analyte of the Octet assay; also called TACSTD2; not shown: His tag
T6 sequence (looked up): T2 sequence
Method: After allowing for four days of protein expression, cell culture supernatants were collected, quantified by SDS-PAGE analysis (DNS), and the pH dependence of the variant was evaluated using biolayer interferometry (BLI) on an Octet RED 96e instrument. Briefly, cell culture supernatants were diluted based on qualitative expression level of the variant determined by visual examination of SDS-PAGE gels, 5 μL of cell culture supernatant was diluted into 195 μL of 1×PBST, pH 7.4 for high expressors, 25 μL of cell culture supernatant was diluted into 175 μL of 1×PBST, pH 7.4 for medium expressors and 100 μL of cell culture supernatant was diluted into 100 μL of 1×PBST, pH 7.4 for low expressors for loading onto the sensor tips. The resulting diluted supernatants were then captured on an anti-human Fc sensor (Forte Bio). A baseline was established using 1×PBST (50 mM Potassium Phosphate Buffer+150 mM NaCl+0.05% Tween 20) pH 7.4, and the sensor was associated with 50 nM of TROP2 (Human TROP2 Protein, His Tag, Acro Biosystems) in 1×PBST pH 7.4 for 120 sec to generate an association curve. In the dissociation phase, the antibody-antigen complex on the sensor was exposed to 1×PBST pH 7.4 or pH 5.4, for 300 sec. Association and dissociation phase curves were examined for the starting ABPC antibody (with no substitutions) and each corresponding antibody variant at pH 5.4 and pH 7.4 to inform on two criteria: a) enhanced dissociation (i.e., higher koff values) at pH 5.4 due to histidine or alanine substitution compared to the starting ABPC, (with no substitutions), and b) reduced dissociation at pH 7.4 (i.e., lower koff values) compared to pH 5.4 in the antibody variant itself and with the starting ABPC (with no substitutions). […] It was also noted that while some mutations obliterated TROP2 binding, others were tolerated with little or n change in TROP2 binding kinetics.

[10] = biological target: T7, Human TROP2 Protein, His Tag (Acro Biosystems) (human, UniProt P09758 27-274); assay: BLI (Octet) [1/2]
T7 construct: also called TACSTD2; not shown: His tag
T7 sequence (looked up): T2 sequence

B1: 170-DXd (antibody, IgG1, V domains shown)
VH: QVQLQESGPGLVKPSETLSLTCTVSGGSISSYGVHWIRQPPGKGLEWIGVIWTSGVTDYNSALMGRVTISVDTSKNQFSLKLSSVTAADTAVYYCARDGDYDRYTMDYWGQGTLVTVSS
VL: DIVMTQSPDSLAVSLGERATINCRASKSVSTSGYSYMHWYQQKPGQPPKLLIYLASNLHSGVPDRFSGSGSGTDFTLTISSLQAEDVAVYYCHHSRHLPYTFGQGTKLEIK
modifications: maleimide based GGFG-DXd conjugated to hinge cysteines, average DAR of about 4
% efficiency @ 100 nM ADC (cytotoxicity in NCI-H1975 cells) [1]: 5.39%

B2: 169-DXd (antibody, IgG1, V domains shown)
VH: B1 VH
VL: B1 VL with H59E, H93Q, H97E
modifications: maleimide based GGFG-DXd conjugated to hinge cysteines, average DAR of about 4
% efficiency @ 100 nM ADC (cytotoxicity in NCI-H1975 cells) [1]: -3.5%

B3: MYT12409 (hu7E6SVG variant, HCV substitutions at 33, 51) (antibody, V domains shown)
VH: B1 VH with G33H, I51H
VL: B1 VL with H59E, H93Q, H97E
binding result [2]: binds

B4: MYT12408 (hu7E6SVG variant, HCV substitutions at 33, 34) (antibody, V domains shown)
VH: B1 VH with G33H, V34H
VL: B1 VL with H59E, H93Q, H97E
binding result [2]: binds

B5: MYT11566 (WT sacituzumab variable regions) (antibody, human IgG1, V domains shown)
VH: QVQLQQSGSELKKPGASVKVSCKASGYTFTNYGMNWVKQAPGQGLKWMGWINTYTGEPTYTDDFKGRFAFSLDTSVSTAYLQISSLKADDTAVYFCARGGFGSSYWYFDVWGQGSLVTVSS
VL: DIQLTQSPSSLSASVGDRVSITCKASQDVSIAVAWYQQKPGKAPKLLIYSASYRYTGVPDRFSGSGSGTDFTLTISSLQPEDFAVYYCQQHYITPLTFGAGTKVEIK
notes: Human IgG1 heavy chain constant domain and Kappa light chain constant domain; also called Sacituzumab WT
Kd [3]: 0.6 nM | Max MFI (@ pH 6.4)-H1975 [4]: 29500 MFI

B6: 112-DXd (antibody, IgG1, V domains shown)
VH: QVQLVQSGAEVKKPGASVKVSCKASGYTFTTAGMQWVRQAPGQGLEWMGWINTHSGVPKYAEDFKGRVTISADTSTSTAYLQLSSLKSEDTAVYYCARSGFGSSYWYFDVWGQGTLVTVSS
VL: B5 VL with L4M, S20T, I31T, D60S, A100Q, V104L
modifications: maleimide based GGFG-DXd conjugated to hinge cysteines, average DAR of about 4
% efficiency @ 100 nM ADC (cytotoxicity in NCI-H1975 cells) [1]: -1.22%

B7: MYT12406 (antibody, V domains shown)
VH: B6 VH
VL: B5 VL with L4M, S20T, I31T, A51H, D60S, Q89H, Y92H, A100Q, V104L
notes: datopotamab VL 51, 89, 92 substituted
binding result [5]: no binding (tested: 50 nM)

B8: MYT11635 (WT datopotamab variable regions) (antibody, human IgG1, V domains shown)
VH: B6 VH
VL: B5 VL with L4M, S20T, I31T, D60S, A100Q, V104L
notes: Human IgG1 heavy chain constant domain and Kappa light chain constant domain; also called Datopotamab WT
Kd [3]: 1.25 nM | Cytotox Fold over datopotamab (FOD) [6]: 1 fold over datopotamab | Max MFI (@ pH 6.4)-H1975 [4]: 25900 MFI

B9: MYT11678 (antibody, V domains shown)
VH: B6 VH
VL: B5 VL with L4M, S20T, A25H, I31T, D60S, A100Q, V104L
notes: IgG from supernatant; His at LCV position 25; also called datopotamab variant L1 02
binding result [7]: binds

B10: MYT13425 (antibody, human IgG1, V domains shown)
VH: B5 VH with D62H
VL: B5 VL with S30H, A51H, I93H
notes: also called sacituzumab HC-LC pairing variant; Sacituzumab pH variant
Kd [3]: 3.99 nM | FOW H1975 (10 nM) [8]: 1.94 fold over parent antibody | Cytotox Fold over datopotamab (FOD) [6]: 1.39 fold over datopotamab | Max MFI (@ pH 6.4)-H1975 [4]: 11200 MFI

B11: MYT12405 (antibody, V domains shown)
VH: B6 VH
VL: B5 VL with L4M, S20T, I31T, A51H, S52H, D60S, Y92H, A100Q, V104L
notes: datopotamab VL 51, 52, 92 substituted
binding result [5]: no binding (tested: 50 nM)

B12: MYT11679 (antibody, V domains shown)
VH: B6 VH
VL: B5 VL with L4M, S20T, S26H, I31T, D60S, A100Q, V104L
notes: IgG from supernatant; His at LCV position 26; also called datopotamab variant L1 03
binding result [7]: binds

B13: MYT13199 (antibody, V domains shown)
VH: B5 VH with G66H
VL: B5 VL with Y53H
notes: Sacituzumab HC-LC pairing variant; IgG
binding result [9]: binds

B14: MYT13198 (antibody, V domains shown)
VH: B5 VH with K65H
VL: B5 VL with Y53H
notes: as for B13
binding result [9]: binds

B15: MYT12407 (antibody, V domains shown)
VH: B6 VH
VL: B5 VL with L4M, S20T, I31T, S52H, D60S, Q89H, Y92H, A100Q, V104L
notes: datopotamab VL 52, 89, 92 substituted
binding result [5]: no binding (tested: 50 nM)

B16: MYT11680 (antibody, V domains shown)
VH: B6 VH
VL: B5 VL with L4M, S20T, Q27H, I31T, D60S, A100Q, V104L
notes: IgG from supernatant; His at LCV position 27; also called datopotamab variant L1 04
binding result [7]: binds

B17: MYT13203 (antibody, V domains shown)
VH: B5 VH with D62H
VL: B5 VL with Q89H
notes: as for B13
binding result [9]: binds

B18: MYT13251 (antibody, V domains shown)
VH: B5 VH with D62H
VL: B5 VL with S52H, I93H
notes: Sacituzumab HC-LC pairing variant
binding result [10]: binds

B19: MYT13250 (antibody, V domains shown)
VH: B5 VH with Y60H
VL: B5 VL with S52H, I93H
notes: as for B18
binding result [10]: binds
